From paper PMC6979384, “Characterization of the plant homeodomain (PHD) reader family for their histone tail interactions” (Epigenetics & Chromatin, 2020)

B1: TRIM66 (PB): GST-tagged PHD + Bromo, 966-1216 (protein)
chain: APIENEDFCAVCLNGGELLCCDRCPKVFHLSCHVPALLSFPGGEWVCTLCRSLTQPEMEYDCENACYNQPGMRASPGLSMYDQKKCEKLVLSLCCNNLSLPFHEPVSPLARHYYQIIKRPMDLSIIRRKLQKKDPAHYTTPEEVVSDVRLMFWNCAKFNYPDSEVAEAGRCLEVFF
modifications: GST tag
B2: CHD4 (PPCC): GST-tagged Dual PHD + Dual Chromo, 350-710 (protein)
chain: KKKKKGEEEVTAVDGYETDHQDYCEVCQQGGEIILCDTCPRAYHMVCLDPDMEKAPEGKWSCPHCEKEGIQWEAKEDNSEGEEILEEVGGDLEEEDDHHMEFCRVCKDGGELLCCDTCPSSYHIHCLNPPLPEIPNGEWLCPRCTCPALKGKVQKILIWKWGQPPSPTPVPRPPDADPNTPSPKPLEGRPERQFFVKWQGMSYWHCSWVSELQLELHCQVMFRNYQRKNDMDEPPSGDFGGDEEKSRKRKNKDPKFAEMEERFYRYGIKPEWMMIHRILNHSVDKKGHVHYLIKWRDLPYDQASWESEDVEIQDYDLFKQSYWNHRELMRGEEGRPGKKLKKVKLRKLERPPETPTVDPTV
modifications: GST tag
B3: DPF2 (PPC2W2): GST-tagged Dual PHD + C2W2 finger, 190-391 (protein)
chain: VGSARKKLDASILEDRDKPYACDICGKRYKNRPGLSYHYAHSHLAEEEGEDKEDSQPPTPVSQRSEEQKSKKGPDGLALPNNYCDFCLGDSKINKKTGQPEELVSCSDCGRSGHPSCLQFTPVMMAAVKTYRWQCIECKCCNICGTSENDDQLLFCDDCDRGYHMYCLTPSMSEPPEGSWSCHLCLDLLKEKASIYQNQNSS
modifications: GST tag
B4: CHD5 (PPCC): GST-tagged Dual PHD + Dual Chromo, 330-670 (protein)
chain: KRIDDGDGYETDHQDYCEVCQQGGEIILCDTCPRAYHLVCLDPELEKAPEGKWSCPHCEKEGIQWEPKDDDDEEEEGGCEEEEDDHMEFCRVCKDGGELLCCDACPSSYHLHCLNPPLPEIPNGEWLCPRCTCPPLKGKVQRILHWRWTEPPAPFMVGLPGPDVEPSLPPPKPLEGIPEREFFVKWAGLSYWHCSWVKELQLELYHTVMYRNYQRKNDMDEPPPFDYGSGDEDGKSEKRKNKDPLYAKMEERFYRYGIKPEWMMIHRILNHSFDKKGDVHYLIKWKDLPYDQCTWEIDDIDIPYYDNLKQAYWGHRELMLGEDTRLPKRLLKKGKKLRDDK
modifications: GST tag
B5: PHRF1 (RP): GST-tagged RING + PHD, 90-250 (protein)
chain: QGKLEAAGSFNSDDDAESCPICLNAFRDQAVGTPENCAHYFCLDCIVEWSKNANSCPVDRTLFKCICIRAQFGGKILRKIPVENTKASEEEEDPTFCEVCGRSDREDRLLLCDGCDAGYHMECLDPPLQEVPVDEWFCPECAAPGVVLAADAGPVSEEEVS
modifications: GST tag

Assay: dCypher AlphaScreen Phase A, optimal reader concentration range
Assay type: binding
Conditions: 100 nM biotinylated peptide; 30 min + 60 min at 23 °C; AlphaLISA; n = 2
Experimental: Fig. 3 dCypher histone peptide-binding assays define the PTM recognition preference of PHD proteins with high sensitivity. a–h Binding curves to determine optimal reader protein concentration for full peptide library screening on the dCypher® AlphaScreen® platform (see “Methods”). X-axes are log(protein concentration (M)) at constant peptide concentration (100 nM); Y-axes are AlphaScreen counts, representing relative strength of binding (n = 2; error bars are S.D.). i Heat map represents relative binding to H3 N-terminal peptides (left) by PHD-containing GST-tagged proteins (top) using the dCypher AlphaScreen platform. Protein concentrations can be found in Additional file 5: Table S4. Binding strength is indicated by color gradient from green to yellow (stronger to weaker). The asterisk (*) by MLL5 signifies its general preference for H3K4 methylation. Alpha counts (n = 2) were normalized individually for each protein to the highest signal for each respective assay. For full dCypher peptide screen data, see Additional file 4: Table S3
We next employed a highly sensitive proximity-based AlphaScreen histone peptide assay (dCypher®) to provide a third and orthogonal approach to analyzing the histone binding preferences for a subset of the 31 PHD proteins with respect to various histone tail PTMs. In this assay, biotinylated peptides are bound to streptavidin “donor” beads and the GST-tagged reader domains bound to Glutathione “acceptor” beads. The donor beads are excited by 680 nm light, releasing a singlet oxygen which causes light emission (520–570 nm) in proximal acceptor beads (within 200 nm); emission intensity is then correlated to binding strength. […] Additionally, we examined several well characterized PHD–PTM interactors [DIDO1, KDM7A, and DPF2 (PPC2W2)] for positive controls and to provide a benchmark. Initial binding assays were conducted for each fusion protein using three peptides [H3 (1–20) with K4me0, H3K4me3 or H3K9me3] to determine the optimal reader domain concentration for full peptide library studies (Fig. 3a–h; Additional file 4: Table S3 and Additional file 5: Table S4). This is an important first step as signal often declined after query protein saturation (the ‘hook point’, caused by excess free query competing with bead bound).
The dCypher peptide screen assay was performed as previously described. Briefly, 5 μL of GST-tagged reader domains (optimal protein concentration for library screening determined by initial binding curves to candidate peptides) were incubated with 5 μL of 400 nM (100 nM Final) biotinylated histone peptides (EpiCypher) for 30 min at 23 °C in 1× AlphaLISA Epigenetics buffer + epigenetics buffer supplement (PerkinElmer, AL1008) in a 384-well plate. […] Plates were incubated at 23 °C in subdued lighting for 60 min and AlphaLISA signal measured on a PerkinElmer 2104 EnVision (680 nm laser excitation, 570 nm emission filter ± 50 nm bandwidth).
Supplementary file 13072_2020_328_MOESM4_ESM.xlsx: Additional file 4: Table S3. dCypher Results. Excel Tab Peptide Phase A is a compiled set of binding data: chromatin reader titration vs. several peptide targets. […] Excel Tab Peptide Phase B is a compiled set of binding data: chromatin reader at optimized concentrations vs. entire 293 peptide library. […]

Molecule	Phase A Optimal Range (reader concentration) [nM]
B1	0.5 to 10
B2	0.45 to 10
B3	0.05 to 1
B4	1 to 35
B5	5 to 30
